This passage reports β-galactosidase activity results from PMC4324299, “Characterization of interactions between inclusion membrane proteins from Chlamydia trachomatis” (Frontiers in Cellular and Infection Microbiology, 2015).

The labels stand for the following.
B1: Ct222 (natural protein)
chain: MRCCCVRTNYEEVRSSSTGDQVVSAVKERKCDSSLCRKIASVAFTLIGALLLGIGMVLSFALLGSSAGLIGVGVILSALGAVCLSLGLCKLFLRMKRVSLDKAEQKMLEDQVELLRQENQELKALVYSN
notes: Ct222, putative inclusion membrane protein of C. trachomatis; also called Ct222 FL; source: bacterial two-hybrid (BACTH) fusion, co-expressed in E. coli DHT1; not shown: T25 (as bait) or T18 (as prey) fragment of B. pertussis adenylate cyclase, N-terminal, kept
B2: Ct850 (natural protein)
chain: MGFGTVRGKGKAVKSFFLRPLQNLEVGLFSLPIVLLLGEIGCVSSISSVSLVAVLSIVGVFVALVSFFRSWGYGLSVVGAIFFGLALCNNFPVSVFWGGLLTVSFIISYGILLLSVSLVEGHIKEKAVSLSELTASHNSLQDSYNREVQERKEKELLAQSKITALEQELSVSHEQLQEVSRKYTHASEDLQILIDQRDSWLKDYMTLHQEYVRVVAGDEENVIFPWKVFQGNSEKDSGYQQRVQDAEHKIAHLEKLCEEENSGKRYAEECLDKALADLLESTRLREILEKEIFQKDEEIASLKQEIAAEKLLSSSVSDDRAAYKGKYLQLREQFTVKDSFLKKARRERFLAQEQLLVLKRAKEEEASNLSTTDSFSIIQNLLLQIEALEEEVTYLEELVLHNQNR
notes: Ct850, putative inclusion membrane protein of C. trachomatis; source: bacterial two-hybrid (BACTH) fusion, co-expressed in E. coli DHT1; not shown: T25 (as bait) or T18 (as prey) fragment of B. pertussis adenylate cyclase, N-terminal, kept

Holding throughout (test): two-hybrid
In the data set “Ct850” the target is B2. The conditions noted are these: partners not purified.
The data set “two-hybrid” deals with the molecule itself.
The data set “Ct222” concerns the target B1. Particulars: partners not purified.

Consider B1, for which the values for the β-galactosidase activity with Ct850 and in “two-hybrid” were 92 relative units (RU) and 317 relative units (RU), respectively. On to B2, for which the β-galactosidase activity in the data set with Ct222 was 151 relative units (RU).
